This is an account of results in patent US20240010682A1 (UNIVERSIT T BASEL, published 2024).

Assay [1] has as its target fibrin (Fb) network formed from human fibrinogen by thrombin (human) (UniProt P02671). Briefly: two-colour confocal fluorescence microscopy of Fb clots formed at 22 C, Coloc2 in ImageJ.
For assay [2] the target is unchanged. The experiment in a line: two-colour confocal fluorescence microscopy of Fb clots formed at 37 C, Coloc2 in ImageJ.
Assay [3] concerns the target T1, fibrin (Fb) network formed from human fibrinogen by thrombin (human, UniProt P02671 36-629; P02675 45-491; P02679 27-437, limits assumed).
T1 construct: Human fibrinogen (FIB 3; depleted of plasminogen, fibronectin and von Willebrand Factor), spiked with 1% AlexaFluor 488-labelled fibrinogen and clotted with thrombin and CaCl2; In the imaging experiments it is a cross-linked gel, not a soluble protein; also called Fb clot; Fb fibers
T1 sequence (looked up) 1: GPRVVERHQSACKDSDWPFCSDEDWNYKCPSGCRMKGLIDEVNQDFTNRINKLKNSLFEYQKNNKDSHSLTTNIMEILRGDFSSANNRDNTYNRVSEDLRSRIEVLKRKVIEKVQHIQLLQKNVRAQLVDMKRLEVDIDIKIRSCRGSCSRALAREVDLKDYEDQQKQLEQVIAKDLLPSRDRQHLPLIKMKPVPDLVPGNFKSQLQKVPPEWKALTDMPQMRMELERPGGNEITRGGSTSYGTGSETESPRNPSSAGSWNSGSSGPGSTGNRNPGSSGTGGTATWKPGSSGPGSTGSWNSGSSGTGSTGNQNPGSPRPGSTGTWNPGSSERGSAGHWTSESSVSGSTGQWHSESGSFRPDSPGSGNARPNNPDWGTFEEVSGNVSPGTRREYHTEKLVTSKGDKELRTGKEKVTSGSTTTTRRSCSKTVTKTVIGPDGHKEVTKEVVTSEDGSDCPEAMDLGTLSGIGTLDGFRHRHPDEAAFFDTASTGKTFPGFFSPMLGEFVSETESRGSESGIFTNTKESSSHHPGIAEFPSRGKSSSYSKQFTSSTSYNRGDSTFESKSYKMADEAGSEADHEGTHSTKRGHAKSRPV
T1 sequence (looked up) 2: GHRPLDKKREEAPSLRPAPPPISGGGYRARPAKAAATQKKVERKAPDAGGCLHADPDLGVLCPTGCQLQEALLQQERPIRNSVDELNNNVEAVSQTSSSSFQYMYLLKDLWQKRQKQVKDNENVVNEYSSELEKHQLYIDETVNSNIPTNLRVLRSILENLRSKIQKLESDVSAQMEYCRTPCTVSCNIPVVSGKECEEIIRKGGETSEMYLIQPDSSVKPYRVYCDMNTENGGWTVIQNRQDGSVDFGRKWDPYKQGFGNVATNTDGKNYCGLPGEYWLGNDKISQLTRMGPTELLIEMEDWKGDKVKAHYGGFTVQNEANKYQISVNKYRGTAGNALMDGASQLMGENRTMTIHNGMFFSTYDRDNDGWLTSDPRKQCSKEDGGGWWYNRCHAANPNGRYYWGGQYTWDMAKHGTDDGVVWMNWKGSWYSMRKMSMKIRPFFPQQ
T1 sequence (looked up) 3: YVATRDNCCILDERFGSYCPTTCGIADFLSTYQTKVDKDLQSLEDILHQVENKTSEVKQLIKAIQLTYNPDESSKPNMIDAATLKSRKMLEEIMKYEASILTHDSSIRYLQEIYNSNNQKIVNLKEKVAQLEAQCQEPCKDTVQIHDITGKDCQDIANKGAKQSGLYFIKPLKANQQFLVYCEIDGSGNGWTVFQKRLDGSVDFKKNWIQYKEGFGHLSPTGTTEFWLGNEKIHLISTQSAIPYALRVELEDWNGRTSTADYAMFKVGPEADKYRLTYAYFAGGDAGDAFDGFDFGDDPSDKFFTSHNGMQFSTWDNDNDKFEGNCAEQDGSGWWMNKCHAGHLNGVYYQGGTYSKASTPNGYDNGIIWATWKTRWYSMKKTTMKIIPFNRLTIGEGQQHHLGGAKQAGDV
The experiment in a line: two-colour confocal fluorescence microscopy of Fb clots formed at 22 C, colocalisation (Coloc2). The source says: The inventors N-terminally labelled hELPs and conELPs with Atto647-N-hydroxysuccinimide (red channel) and confirmed they were still cross-linked by FXIIIa. Fluorescent-hELPs (f-hELPs) or fluorescent-conELPs (f-conELPs) were then integrated into Fb clots spiked with 1% AlexaFluor 488-labelled fibrinogen (Fg-488, green channel). The inventors used two color confocal fluorescence microscopy to characterize hELP and Fb network morphology, degree of hELP and Fb colocalization, and the influence of hELP phase transition on clot architecture. […] The inventors observed little to no fluorescence intensity in the red channel when only HEPES buffer or f-conELP were added during formation of Fb networks (FIG. 3a, left, HEPES & conELP).
To quantify hELP and Fb spatial colocalization, the inventors used Coloc2 in ImageJ to calculate Pearson's correlation coefficients (PCC) (J. Adler, I. Parmryd, Cytom. Part A 2010, 77, 733). For f-hELP-Fb clots at 22° C., a PCC between f-hELP and Fb channels of 0.69±0.1 indicated high spatial correlation. For f-conELP-Fb clots, a PCC value of 0.05±0.09 indicated no spatial correlation (FIG. 3b).

B1: fluorescent hELP (f-hELP), hELP labelled with Atto647-N-hydroxysuccinimide (protein)
chain: MGHGVGVPGVGVPGAGVPGVGVPGVGVPGVGVPGVGVPGVGVPGVGVPGVGVPGEGVPGAGSGDQMMLPWPAVALSGVPGVGVPGVGVPGAGVPGVGVPGVGVPGVGVPGVGVPGVGVPGVGVPGVGVPGEGVPGAGSGDQMMLPWPAVALSGVPGVGVPGVGVPGAGVPGVGVPGVGVPGVGVPGVGVPGVGVPGVGVPGVGVPGEGVPGAGSGDQMMLPWPAVALSGVPGVGVPGVGVPGAGVPGVGVPGVGVPGVGVPGVGVPGVGVPGVGVPGVGVPGEGVPGAGSGDQMMLPWPAVALSGVPGVGVPGVGVPGAGVPGVGVPGVGVPGVGVPGVGVPGVGVPGVGVPGVGVPGEGVPGAGVPGVGVPGVGVPGAGVPGVGVPGVGVPGVGVPGVGVPGVGVPGVGVPGVGVPGEGVPGAGVPGVGVPGVGVPGAGVPGVGVPGVGVPGVGVPGVGVPGVGVPGVGVPGVGVPGEGVPGAGVPGVGVPGVGVPGAGVPGVGVPGVGVPGVGVPGVGVPGVGVPGVGVPGVGVPGEGVPGAGVPGVGVPGVGVPGAGVPGVGVPGVGVPGVGVPGVGVPGVGVPGVGVPGVGVPGEGVPGAGSGGSKGSSGVPGVGVPGVGVPGAGVPGVGVPGVGVPGVGVPGVGVPGVGVPGVGVPGVGVPGEGVPGAGSGGSKGSSGVPGVGVPGVGVPGAGVPGVGVPGVGVPGVGVPGVGVPGVGVPGVGVPGVGVPGEGVPGAGSGGSKGSSGVPGVGVPGVGVPGAGVPGVGVPGVGVPGVGVPGVGVPGVGVPGVGVPGVGVPGEGVPGAGSGGSKGSSGVPGWLDSLEFIA
modifications: chain 1 pos 1: N-terminal alpha-amine preferentially labelled with Atto647-NHS dye (about 0.95 dye per ELP), written M; minor labelling of K-block lysines is possible.
B1 returned a Pearson's correlation coefficient (PCC) between f-hELP and Fb channels in assay [1] of 0.69. The molecule further came in with a Pearson's correlation coefficient (PCC) between ELP and Fb channels in assay [2] of 0.163.

B2: fluorescent conELP (f-conELP), conELP labelled with Atto647-N-hydroxysuccinimide (other)
chain: MGHGVGVPGVGVPGAGVPGVGVPGVGVPGVGVPGVGVPGVGVPGVGVPGVGVPGEGVPGAGSGDGMMLPWPAVALSGVPGVGVPGVGVPGAGVPGVGVPGVGVPGVGVPGVGVPGVGVPGVGVPGVGVPGEGVPGAGSGDGMMLPWPAVALSGVPGVGVPGVGVPGAGVPGVGVPGVGVPGVGVPGVGVPGVGVPGVGVPGVGVPGEGVPGAGSGDGMMLPWPAVALSGVPGVGVPGVGVPGAGVPGVGVPGVGVPGVGVPGVGVPGVGVPGVGVPGVGVPGEGVPGAGSGDGMMLPWPAVALSGVPGVGVPGVGVPGAGVPGVGVPGVGVPGVGVPGVGVPGVGVPGVGVPGVGVPGEGVPGAGVPGVGVPGVGVPGAGVPGVGVPGVGVPGVGVPGVGVPGVGVPGVGVPGVGVPGEGVPGAGVPGVGVPGVGVPGAGVPGVGVPGVGVPGVGVPGVGVPGVGVPGVGVPGVGVPGEGVPGAGVPGVGVPGVGVPGAGVPGVGVPGVGVPGVGVPGVGVPGVGVPGVGVPGVGVPGEGVPGAGVPGVGVPGVGVPGAGVPGVGVPGVGVPGVGVPGVGVPGVGVPGVGVPGVGVPGEGVPGAGSGGSGGSSGVPGVGVPGVGVPGAGVPGVGVPGVGVPGVGVPGVGVPGVGVPGVGVPGVGVPGEGVPGAGSGGSGGSSGVPGVGVPGVGVPGAGVPGVGVPGVGVPGVGVPGVGVPGVGVPGVGVPGVGVPGEGVPGAGSGGSGGSSGVPGVGVPGVGVPGAGVPGVGVPGVGVPGVGVPGVGVPGVGVPGVGVPGVGVPGEGVPGAGSGGSGGSSGVPGWLDSLEFIA
modifications: chain 1 pos 1: N-terminal alpha-amine labelled with Atto647-NHS dye (about 0.95 dye per ELP), written M.
notes: also called f-conELPs; fluorescent-conELPs
Consider B2, for which, in assay [3], the binding result is recorded as “no binding (tested: 30 µM f-conELP)”.
